Results published in patent US11566081B2, “Anti-acetaminophen antibodies and acetaminophen protein adducts” (BioVentures, LLC, priority 2014, dated 2023).

B1: 14-12: rabbit monoclonal antibody to acetaminophen-protein adduct, immunogen CP-2IT-APAP; light chain SEQ ID NO:13, heavy chain SEQ ID NO:14 (antibody)
heavy: METGLRWLLLVAVLKGVQCQSVEESGGRLVTPGTPLTLTCTVSGFSINAYGINWVRQAPGKGLEYIGFSAPHTASYARWTKGRFTMSRTSTTVDLRMTSPTTEDTATYFCARYDRGGMVFNLWGQGTLVTVSSGQPKAPSVFPLAPCCGDTPSSTVTLGCLVKGYLPEPVTVTWNSGTLTNGVRTFPSVRQSSGLYSLSSVVSVTSSSQPVTCNVAHPATNTKVDKTVAPSTCSKPTCPPPELLGGPSVFIFPPKPKDTLMISRTPEVTCVVVDVSQDDPEVQFTWYINNEQVRTARPPLREQQFNSTIRVVSTLPIAHQDWLRGKEFKCKVHNKALPAPIEKTISKARGQPLEPKVYTMGPPREELSSRSVSLTCMINGFYPSDISVEWEKNGKAEDNYKTTPAVLDSDGSYFLYSKLSVPTSEWQRGDVFTCSVMHEALHNHYTQKSISRSPGK
light: MDTRAPTQLLGLLLLWLPGATFALVMTQTPSSVPAAVGGTVTIGCQASQSISRQVSWYQQKPGQPPKLLIYRASTLASGVSSRFKGSGSGTEFTLTISGVQCDDAATYYCLGIVTDRIADGLAFGGGTEVVVKGDPVAPTVLIFPPAADQVATGTVTIVCVANKYFPDVTVTWEVDGTTQTTGIENSKTPQNSADCTYNLSSTLTLTSTQYNSHKEYTCKVTQGTTSVVQSFNRGDC
B2: 22-8: rabbit monoclonal antibody to acetaminophen-protein adduct, immunogen CP-2IT-APAP; light chain SEQ ID NO:15, heavy chain SEQ ID NO:16 (antibody)
heavy: METGLRWLLLVAVLKGVQCQSLEESGGRLVTPGGSLTLTCTASGLTINNYYIIWVRQAPGKGLKYIGITYGGGFAYYASWAKGRFTISRTSTTVDLKMTSLTAEDTATYFCVRAAAGGAYDLWGQGTLVTVSSGQPKAPSVFPLAPCCGDTPSSTVTLGCLVKGYLPEPVTVTWNSGTLTNGVRTFPSVRQSSGLYSLSSVVSVTSSSQPVTCNVAHPATNTKVDKTVAPSTCSKPTCPPPELLGGPSVFIFPPKPKDTLMISRTPEVTCVVVDVSQDDPEVQFTWYINNEQVRTARPPLREQQFNSTIRVVSTLPIAHQDWLRGKEFKCKVHNKALPAPIEKTISKARGQPLEPKVYTMGPPREELSSRSVSLTCMINGFYPSDISVEWEKNGKAEDNYKTTPAVLDSDGSYFLYSKLSVPTSEWQRGDVFTCSVMHEALHNHYTQKSISRSPGK
light: MDTRAPTQLLGLLLLWLPGATFAIEMTQTPSPVSAVVGGTVTINCQSSQNVFRKNYLSWFQQKPGQPPKLLISYIDSLTSGVPSRFSGSGAGTQFTLTISDVQCDDAATYYCLGVDGSANDATFGGGTEVVVEGDPVAPTVLIFPPAADQVATGTVTIVCVANKYFPDVTVTWEVDGTTQTTGIENSKTPQNSADCTYNLSSTLTLTSTQYNSHKEYTCKVTQGTTSVVQSFNRGDC

Test system: acetaminophen protein adduct (BSA-APAP, 3-(cystein-S-yl)acetaminophen)
Assay: Competitive ELISA: relative inhibitory potency of APAP-protein adduct (BSA-APAP) versus free APAP
Format: binding
Conditions: inhibitors BSA-APAP vs APAP on a molar basis, clone supernatant final dilution 1:500
From the text: Tissue culture supernatants from Rabbit monoclonal antibody clone 14-12 at a dilution of 1:250 was mixed with serial 4-fold dilutions of inhibitor (either BSA-APAP or APAP) such that the final dilution of RmAb was 1:500. The final concentrations of APAP were 80, 20, 5, 1.25, and 0.31 nmole per ELISA well. The final concentrations of APAP-BSA (quantified by HPLC-EC as APAP-Cys from the hydrolyzed protein) were 10, 2.5, 0.625, 0.156, and 0.04 pmole per ELISA well.
Synthetically prepared acetaminophen-protein adduct (BSA-APAP) and free drug (APAP) were evaluated in competitive ELISA to determine their relative capacity, on a molar basis, to inhibit the binding of clone 14-12 rabbit monoclonal antibody to solid-phase immobilized acetaminophen protein adduct. […] Restated, clone 14-12 antibody has approximately 8000 times more affinity for acetaminophen protein adduct than it does for free APAP as measured in this ELISA context.
The competitive ELISA was repeated with rabbit monoclonal antibody (RMAb) 14-12 and rabbit monoclonal antibody (RMAb) 22-8. […] After incubation and washing, bound RMAb was detected using Goat anti-Rabbit-IgG conjugated to HRP followed by the substrate TMB and color development was determined using an ELISA plate reader. […]

Molecule | times more affinity for acetaminophen protein adduct than for free APAP
B1 | approximately 8000 times
B2 | approximately 1250 times
